# Molecular target: casirivimab (human)
# Assay: SPR; Biacore T200; […]; HBS-EP, 25 °C; 1:1 binding model
# Sequence of casirivimab (human) (heavy, as listed by the source, chain 1 of 2): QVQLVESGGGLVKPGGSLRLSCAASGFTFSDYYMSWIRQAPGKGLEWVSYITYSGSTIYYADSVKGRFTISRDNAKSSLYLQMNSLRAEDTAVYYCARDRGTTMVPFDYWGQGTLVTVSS
# Sequence of casirivimab (human) (light, as listed by the source, chain 2 of 2): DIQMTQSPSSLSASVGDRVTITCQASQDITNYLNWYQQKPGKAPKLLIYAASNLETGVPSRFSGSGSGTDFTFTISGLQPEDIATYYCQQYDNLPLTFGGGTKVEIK
row,Substance,Kd
1,Delta RBD + E406D (from UniProt P0DTC2) (domain or fragment),7.1 nM
2,Delta RBD + G446S (from UniProt P0DTC2) (domain or fragment),0.56 nM
3,Delta RBD + G446V (from UniProt P0DTC2) (domain or fragment),0.64 nM
4,Delta RBD + G446V + L455F (from UniProt P0DTC2) (domain or fragment),69 nM
5,Delta RBD + Y453F (from UniProt P0DTC2) (domain or fragment),67 nM

# Molecular target: imdevimab (human)
# Assay: as above
# Sequence of imdevimab (human) (heavy, as listed by the source, chain 1 of 2): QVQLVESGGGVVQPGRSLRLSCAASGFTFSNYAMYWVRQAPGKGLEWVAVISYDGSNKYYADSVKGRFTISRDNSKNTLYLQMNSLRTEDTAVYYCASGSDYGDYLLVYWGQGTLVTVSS
# Sequence of imdevimab (human) (light, as listed by the source, chain 2 of 2): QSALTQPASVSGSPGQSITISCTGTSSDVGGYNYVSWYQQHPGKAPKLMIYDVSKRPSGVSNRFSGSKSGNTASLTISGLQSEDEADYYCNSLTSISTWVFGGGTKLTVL
row,Substance,Kd
1,Delta RBD + E406Q (from UniProt P0DTC2) (domain or fragment),8.9 nM
2,Delta RBD + G446S (from UniProt P0DTC2) (domain or fragment),734 nM
3,Delta RBD + L455S (from UniProt P0DTC2) (domain or fragment),9.1 nM
4,Delta RBD + Y453F (from UniProt P0DTC2) (domain or fragment),9.8 nM

# Molecular target: sotrovimab
# Assay: as above
row,Substance,Kd
1,BA.1 RBD + E340A (from UniProt P0DTC2) (domain or fragment),3420 nM
2,BA.1 RBD + E340D (from UniProt P0DTC2) (domain or fragment),764 nM
3,BA.1 RBD + E340K (from UniProt P0DTC2) (domain or fragment),3440 nM
4,BA.1 RBD + E340V (from UniProt P0DTC2) (domain or fragment),345 nM
5,BA.1 RBD + P337R (from UniProt P0DTC2) (domain or fragment),753 nM
6,BA.1 RBD + P337S (from UniProt P0DTC2) (domain or fragment),332 nM

# Reference: paper PMC10246534
